From doi:10.1101/2022.07.01.498528 (bioRxiv, 2022) come the findings set out here.

Assay [1] deals with TEM-1 β-lactamase (class A) (Escherichia coli (assumed), TEM-1, UniProt P62593). The assay can be described thus: BLI. On the technique in general: BLI is a label-free optical method that tracks binding on a fibre tip over time.
The target in assay [2] is OXA-48 β-lactamase (class D) (Klebsiella pneumoniae, OXA-48, UniProt Q6XEC0). Nature of the assay: BLI.
Assay [3] addresses VIM-4 β-lactamase (class B) (Pseudomonas aeruginosa, VIM-4, UniProt Q8KRJ3, strain). The assay can be described thus: BLI.
Assay [4] concerns the target CMY-1 β-lactamase (class C) (Klebsiella pneumoniae, CMY-1, UniProt P71420, strain). The assay can be described thus: BLI.
Assay [5] addresses AmpC P99 of Enterobacter cloacae (class C β-lactamase) (Enterobacter cloacae P99, UniProt P05364). Nature of the assay: BLI.
Another assay has as its target CMY-42 β-lactamase (Escherichia coli entry (host isolate …, UniProt F4YXC2, strain)). Nature of the assay: ELISA. (In general: In an ELISA, binding on a coated surface is turned into a signal by an enzyme label.)
A further assay addresses CMY-58 β-lactamase (Escherichia coli entry (host isolate …, UniProt F1C3E3, strain)). Nature of the assay: ELISA.
In the next assay the target is CMY-16 β-lactamase (Proteus mirabilis entry (host isolate …, UniProt Q4LCT4, strain)). The assay can be described thus: ELISA.
The target of the next assay is CMY-60 β-lactamase (Escherichia coli entry (host isolate …, UniProt G3F7G8, strain)). Nature of the assay: ELISA.
In the next assay the target is CMY-61 β-lactamase (Escherichia coli entry (host isolate …, UniProt G3F7G9, strain)). The assay can be described thus: ELISA.

Sequence of AmpC P99 of Enterobacter cloacae (class C β-lactamase) (P05364 21-381): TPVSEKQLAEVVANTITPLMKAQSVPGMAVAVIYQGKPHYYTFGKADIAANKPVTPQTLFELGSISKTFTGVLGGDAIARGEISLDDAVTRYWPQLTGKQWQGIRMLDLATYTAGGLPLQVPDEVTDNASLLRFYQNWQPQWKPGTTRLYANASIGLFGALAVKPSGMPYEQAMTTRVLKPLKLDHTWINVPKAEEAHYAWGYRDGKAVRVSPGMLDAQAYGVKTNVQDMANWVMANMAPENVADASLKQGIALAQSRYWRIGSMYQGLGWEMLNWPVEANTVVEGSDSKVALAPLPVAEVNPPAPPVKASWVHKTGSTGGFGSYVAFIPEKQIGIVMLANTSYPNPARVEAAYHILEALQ
Sequence of OXA-48 β-lactamase (class D) (Q6XEC0 23-265): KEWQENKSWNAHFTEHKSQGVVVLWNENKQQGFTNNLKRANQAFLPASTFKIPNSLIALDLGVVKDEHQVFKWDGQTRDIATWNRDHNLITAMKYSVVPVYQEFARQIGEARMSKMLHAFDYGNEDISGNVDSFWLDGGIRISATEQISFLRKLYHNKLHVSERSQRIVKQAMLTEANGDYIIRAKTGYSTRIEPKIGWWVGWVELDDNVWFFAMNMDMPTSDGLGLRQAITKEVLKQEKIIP
Sequence of TEM-1 β-lactamase (class A) (P62593 24-286): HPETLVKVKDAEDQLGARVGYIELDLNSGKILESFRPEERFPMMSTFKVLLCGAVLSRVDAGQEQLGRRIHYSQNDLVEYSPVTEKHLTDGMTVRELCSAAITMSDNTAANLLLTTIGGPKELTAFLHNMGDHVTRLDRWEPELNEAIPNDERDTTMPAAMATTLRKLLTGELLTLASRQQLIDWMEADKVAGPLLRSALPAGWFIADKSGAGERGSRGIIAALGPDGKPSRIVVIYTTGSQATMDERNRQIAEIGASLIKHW

B1: VHH cAb_(CMY-2)(254) (VHH)
VHH: QVQLVESGGGMVQPGGSLRLSCAASGFTFSNYDMSWVRRAPGKGPEWVSTINTGGGSTSYADSVKGRFTISRDNAKNTLYLQMNSLKPEDTALYYCTIDRGLHYSDLGEYDYWGQGTQVTVSS
As to B1, the binding result in assay [1] is “no binding (tested: 500 nM)”; in assay [2] it was “no binding (tested: 500 nM)”; in assay [3], “no binding (tested: 500 nM)”; in assay [4], “no binding (tested: 500 nM)”; in assay [5], “no binding (tested: 500 nM)”; with CMY-42 β-lactamase, “binds”. Besides, the binding result with CMY-58 β-lactamase, in the assay with CMY-16 β-lactamase, with CMY-60 β-lactamase and with CMY-61 β-lactamase was “binds” throughout.

B2: VHH cAb_(CMY-2)(250) (VHH)
VHH: QVQLVESGGGLVQPGGSLRLSCAASGSIFSIYGMGWYRQAPGKQRELVAEITSGGSTNYADSVKGRFTISRDNAKNTVYLQMNSLNPEDTAVYYCNADGTMWGAGDYWGQGTQVTVSS
On to B2, for which the binding result in assay [1] is “no binding (tested: 500 nM)”; in [2] it was “no binding (tested: 500 nM)”; in assay [3], “no binding (tested: 500 nM)”; in assay [5], “binds”.

B3: VHH cAb_(CMY-2)(272) (VHH)
VHH: QVQLVESGGGLVQPGGSLRLSCAASGSIFMIYAMGWYRQAPGKQRELVADITSGGSTDYTDSVKGRFTISRDKNTVYLQMNSLKPEDTAVYYCNADHGPGFGYDYWGQGTQVTVSS
Regarding B3, the binding result in assay [1], in [2], in [3], in assay [4] and in [5] was “no binding (tested: 500 nM)” in each case.
